# Assay: AAE enzyme assay (acyl-CoA synthetase assay) of purified recombinant HuAAE proteins with an array of substrates
# Type: biochemical
# Conditions: purified recombinant enzyme from E. coli, UPLC-MS/MS peak area (FIG. 6); for activity towards butyric acid (formation of butyryl CoA): substrate butyric acid
# Experimental: FIG. 6 includes vertical bar graphs showing recombinant enzyme assays of purified H. umbraculigerum acyl activating enzyme (HuAAE) proteins produced in Escherichia coli cells. Peak area is shown. Various alkyl (short-and medium-chain fatty acids) and aromatic (cinnamic and coumaric acids) substrates were used in the enzyme assays.
# All AAE genes from H. umbraculigerum were individually cloned into the pET28b vector and expressed in E. coli BL21 (DE3) cells. Bacterial cells were grown in LB medium at 37° C. When cultures reached Absorbance 600=0.6, protein expression was induced with 200 μM of isopropyl-1-thio-β-d-galactopyranoside (IPTG) at 15° C., for 24 h. Bacterial cells were lysed by sonication in 50 mM Tris-HCl pH 7.5, 500 mM NaCl, 1 mM PMSF, 10% glycerol and protease inhibitor cocktail (Sigma Aldrich). An aliquot of whole-cell extract was kept for further analysis. Soluble protein was purified on Ni-NTA agarose beads (Adar Biotech) and eluted with 300 mM imidazole in buffer containing 50 mM NaH2PO4 pH-7.5 and 300 mM NaCl. The whole-cell extract, and the eluted fractions were analyzed by SDS-PAGE stained with InstatBlue.
# Acyl-CoA synthetase assays were performed in a 20 μl reaction mix that contained 0.1 μg recombinant AAE, 50 mM HEPES pH 9, 8 mM ATP, 10 mM MgCl2, 0.5 mM CoA and 4 mM sodium hexanoate for 10 min at 40° C. Reactions were terminated with 2 μl of 1 M HCl and stored on ice until analysis. After centrifugation at 15 000 g for 5 min at 4° C., the samples were diluted 1:100 in water and analyzed by UPLC-MS/MS (Stout et al., 2012). injections were performed on a UPLC (Waters) connected to a Triple Quad detector (TQ-S, Waters) in multiple reaction monitoring (MRM) mode. The chromatographic separation was achieved using a similar column as previously described. The mobile phase consisted of an aqueous buffer pH 7.0 (10 mM Ammonium Acetate, 5 mM NH4HCO2, phase A) and acetonitrile (phase B). The flow rate was 0.3 ml min^−1, and the column temperature was kept at 25° C. Compounds were analyzed using a 15 min multistep gradient method: initial conditions were 1% B raised to 35% B until 10.5 min, and then raised to 100% B until 11 min, held at 100% B for 1 min, decreased to 1% B until 12.5 min, and held at 1% B until 15 min for re-equilibration of the system. The instrument was operated in positive mode with a capillary voltage of 3.0 kV, and a cone voltage of 50 V. Metabolite identity was confirmed with authentic standards (Sigma Aldrich). Two different transitions were used for analysis of: acetyl-CoA (810.52>303.30, 27.0V; 810.52>428.25, 24.0V); butyryl-CoA (838.58>331.30, 28.0 V; […]); hexanoyl-CoA (866.65>359.40, 28.0 V; 866.65 >428.25, 26.0 V); octanoyl-CoA (894.65>387.55, 30.0 V; 894.65>428.25, 28.0 V); coumaroyl-CoA (914.59>407.37, 30.0 V; 914.59>428.25, 28.0 V); cinnamoyl-CoA (898.59>391.37, 30.0 V; 898.59>428.25, 28.0 V).
# Next, the inventors individually recombinantly expressed six of the eleven AAEs, each in E. coli, purified respective proteins, and examined their activity using array of substrates (acetic acid, butyric acid, hexanoic acid, octanoic acid, cinnamic acid and coumaric acid).
molecule,measurement,setting,value
"HuAAE4: H. umbraculigerum acyl activating enzyme, recombinantly expressed in E. coli and purified; great homology to CsAAE1 (protein) MVYKSLNSISISDIVNLGISPETATQLHQKLTEIIQIYGFDAPQTWTQISTRILHPDLPFCFHQMMYYGCYVDFGPDPPAWSPDPKDAKLTNIGSLLERRGKEFLGPSYKDPISSYSALQEFSALNLEVFWKTILDEMNITFSVPPKRILVDDLSKESQLLHPGGRWLPGAYVNPARNCLSLSSKRRLSDIAVIWRDEGNDDMPVNKMTFQQLRSEVWLVAYALDTLGVEKGSAIAIDMPMDVKSVVIYLAIVLAGYVVVSIADSFAAGEISTRLVLSKAKAIFTQDLIIRGDRSHPLYSRVVDAQSPLAIVIPTRGSSFSIKLRDGDISWHDFLERANTYRNVEFVAVERPVEAFSNILFSSGTTGEPKAIPWTLATPFKAGADAWCHMDVHKGDVVAWPTNLGWMMGPWLIYASLLNGGSLALYNGSPLTSGFAKFVQDAKVTLLGVIPSIVRAWRTNNSTAGFDWSTIRCFGSTGEASNTDECLWLMGRAHYKPVIEYCGGTEIGGGFITGSLLQPQCLSAFSTPSLGCKLLILGEDGIPIPQNAPGIGELALNPLMFGASSTLLNANHYDVYFKGMPSWNGKVLRRHGDVFERTSKGYYRAHGRADDTMNLGGIKVSSVEIERVCNSIDDRILETAAIGVTPSGGGPERLVIVVAFKDGSGSKPDLIKLKVTLNSALQKNLNPLFKVSDVVPFPSLPRTATNKVMRRVLRQQLTQIGQNSKL",activity towards butyric acid (formation of butyryl CoA),,efficiently produced butyryl CoA
"HuAAE2: H. umbraculigerum acyl activating enzyme, recombinantly expressed in E. coli and purified (protein) MDALRKPNSANSSPLTPIGFLERAAVVFANSPSIVYNNLIYTWSDTFHRCLRLASSISRLAIRKGDVVSVLAPNIPAIYELHFGITMTGAIINTINTRLDARTISILLCHSESKLVFVDYQLTRLIREAVSLMPDACVPPQLVLIVDDGHNLSLLSDQFINTYEAMVETGDPGFNWVRPDSDWDPLTLNYTSGTTSSPKGVVNSHRGSFIVAFDSLLEWHVPKQPIMLWTLPMFHANGWSFVWGMAAVGGTNVCLRKFDATIIYDTIRNHHVTHMCGAPVVLNMLSEGKPLEHTVHIMTAGAPPPAAVLLRTESLGFEVTHGFGMTETGGLVVSCSWKKEWNRLPVTEKARLKARQGVRTLGMTEVDIVDPESGVSVTRDGLTQGELVLRGGSIMLGYLKDPETTNKSVKNGWFYTGDVAVMHPDGYLEIKDRSKDVIISGGENISSVEVESILYQHPAINEAAVVGRPDEFWGESPCAFVSLKDDNGKVAVPTADEIMKFCKGKLPGYMVPKSVVFKKDLPKTSTGKIQKYVLRKLAKDLGFAVKSRI",activity towards butyric acid (formation of butyryl CoA),,efficiently produced butyryl CoA
"HuAAE6: H. umbraculigerum acyl activating enzyme, recombinantly expressed in E. coli and purified; similar to long-chain acyl-CoA synthetases (protein) MSVYTVKVEDSRAASGETPSAGPVYRCIYAKDALMELPPGYESPWDFFSESVKRNPKNPALGRRQVIDGKAGGYSWLSYQEAYNSALRIASAIRSRSVNPGDRCGIYGPNCPEWIISMEACNSNGITYVPLYDTLGANAVEYIINHAEISLVFVQENKLSAILSCLPNCSSNLKTIVSFGKFSESQKNEAMEHGVDCFSWEEFSSMGNLEDELPAKNKTDICTIMYTSGTTGEPKGVVLSNRAFMSEVLSMHELLIETDKPGTEEDTYFSFLPLAHIFDQIMETYFIYSGASIGFWQGDIRYLIEDLLVLQPTIFCGVPRVYDRIYTGIMAKISTGGAIRKALFDFAYNYKLRNLEKGIQQDKSAPLLDKLVFDKIKQGFGGRVRLMLSGAAPLPKHVEEFLRVTCCTVLSQGYGLTESCGGCFTSIANVYSMIGTVGVPMTTIEARLESVPEMGYDALSSVPCGEICLRGNTLFSGYHKRDDLTDAVLVDGWFHTGDIGEWQADGAMKIIDRKKNIFKLSQGEYVAVESIESTYSRCPLVTSIWVYGNSFESFLVAVVVPDRVAVEEFAAKNNESGDYASLCKNPNVRKYVLEELNAEAQCNKLRGFEMLKAVHLDPVPFDFERDLITPTFKLKRQQLLKYYKDCVEQLYAEAKTSKK",activity towards cinnamic acid (formation of cinnamoyl CoA),substrate cinnamic acid,reacted
same,activity towards coumaric acid (formation of coumaroyl CoA),substrate coumaric acid,reacted
same,activity towards hexanoic acid,substrate hexanoic acid,very high activity
same,activity towards octanoic acid,substrate octanoic acid,very high activity
"HuAAE3: H. umbraculigerum acyl activating enzyme, recombinantly expressed in E. coli and purified (protein) MTEEEKNKAESMGIKTYAWSDFLHLGSKNPSELQTPKATDICTIMYTSGTSGDPKGVILTHENATTNIRGVDLFMEQFEDKMTVDDVYISFLPLAHILDRMIEEYFFRSGASVGFYHGDINALKEDLAELKPTFLAGVPRVLEKIHEGVLKGLEEVNPRRRKIFSILYNHKLKYMKAGYKHKYASPLADLLAFRKVKNRLGGRIRLMVSGGAPLSTEIEEFMRVTSCAFVAQGYGLTETCGLATLGFPDEMCMIGTVGSPFVYTELRLEEVSDMGYDPLANPPRGEICVKGKTPFAGYYKNPELTNEVMKDGWFHTGDIGEMQPNGVLKIIDRKKHLIKLSQGEYIALEYLEKVYCITPILEDIWVYGDSFKSSLVAVAVPNKENAEKWADQKGLKVSYSELCTLTQFRDYIQSELKSTAERNKLRGFEHIKAIIVEPRTFEGDQELLTATMKKRRNKLLNRYKEGIDNLYKNLAANKR",activity against acetic acid (formation of acetyl CoA),substrate acetic acid,great activity

# Reference: patent US20240150744A1, “ACYL ACTIVATING ENZYME AND A TRANSGENIC CELL, TISSUE, AND ORGANISM COMPRISING SAME” (YEDA RESEARCH AND DEVELOPMENT CO. LTD., priority 2021, published 2024)
